The source of these data is US11639389B2.

The target in this experiment is Purified Fc fusion protein of Human CTLA4 (human). The experiment is described as follows: BLI (Fortebio), CTLA4-Fc immobilized by amine reactive chemistry. A general note: In BLI a coated tip is dipped into the sample, and binding shifts an interference pattern.

As usually defined, the Kd is the concentration at which binding is half-saturated.

Substance “Anti CTLA4 IgG (BioLegend A3.B10.G1) (antibody)” registered a Kd of 2 nM.
